Values quoted from earlier work in paper PMC2652713, “Molecular Blocking of CD23 Supports Its Role in the Pathogenesis of Arthritis” (PLoS ONE, 2009).

Test system: human macrophages and epithelial cells
From the text: Authors reported overexpression of membrane bound and sCD23 during acute juvenile or adult arthritis, with a clear pro-inflammatory property in this form. In the present study, we report similar observations in peripheral and synovial liquid monocytes/macrophages from adult arthritic patients (Figure 5).

B1: IL-10: a well-known immunoregulator and Th-1 inhibitor cytokine (protein, UniProt P22301 19-178, looked up)
Interleukin-10: SPGQGTQSENSCTHFPGNLPNMLRDLRDAFSRVKTFFQMKDQLDNLLLKESLLEDFKGYLGCQALSEMIQFYLEEVMPQAENQDPDIKAHVNSLGENLKTLRLRLRRCHRFLPCENKSKAVEQVKNAFNKLQEKGIYKAMSEFDIFINYIEAYMTMKIRN
For B1, the “CD23-mediated TNF-α production” value is listed as “decreased” and the “CD23-mediated nitric oxide production” value is listed as “decreased”.
